No end group written: not given here.

As usually defined, the EC50 (read off the curve) is the midpoint of the concentration-response curve. In general, Kd refers to a measure of binding affinity in units of concentration. The low end stands for a tighter complex, the high end for a looser complex.

B1: switching binder of SEQ ID NO. 3 (L1) (peptide)
peptide: TYLEWYPQKPGQSPKLLIYK
modifications: also: fluorescence label in fluorescence assays, dye and place not given here
notes: also called PEPTIDE 3
B2: switching binder of SEQ ID NO. 2 (H2) (peptide)
peptide: VYYCAREPTGTGIYFDVWGK
modifications: also: fluorescence label in fluorescence assays, dye and place not given here
notes: also called PEPTIDE 2
B3: switching binder of SEQ ID NO. 4 (L2) (peptide)
peptide: VYYCFQGSHVPFTK
modifications: also: fluorescence label in fluorescence assays, dye and place not given here
notes: also called PEPTIDE 4

Test [1] addresses T1, CRP (UniProt P02741 19-224).
T1 construct: also called antigen CRP
T1 sequence (looked up): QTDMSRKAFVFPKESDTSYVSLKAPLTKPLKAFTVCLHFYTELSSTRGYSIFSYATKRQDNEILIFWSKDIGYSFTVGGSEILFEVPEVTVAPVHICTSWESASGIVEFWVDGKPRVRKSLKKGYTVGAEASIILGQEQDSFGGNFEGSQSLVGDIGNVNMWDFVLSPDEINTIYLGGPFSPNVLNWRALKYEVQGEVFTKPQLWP
In words: fluorescence of labelled peptide (20 µM) on protein coated at 100 µg/mL on a solid support.

The target in test [2] is protein A (UniProt P38507 37-477). Described as above.
Test [3] concerns the target anti-HBsAg antibody. In words: fluorescence of labelled peptide (20 µM) on anti-HBsAg antibody fixed on a solid support, before (A) and after (B) HBsAg 10 µg/ml; C = fluorescence in the solution.
The target in test [4] is anti-CRP antibody. In words: fluorescence of labelled peptide (20 µM) on anti-CRP antibody fixed on a solid support, before (A) and after (B) antigen 10 µg/ml (CRP by paragraph 170; paragraph 172 writes HRP); C = fluorescence in the solution.
Method: 1 to 4 were each treated at a concentration of 20 μM (100 μl/well) for 2 hours. At this time, after measuring the fluorescence of the bottom (A), the antigen HRP as an analyte for an IgG antibody of rabbit was treated at a concentration of 10 μg/ml for 1 hour. […] 1 to 4 were each treated at a concentration of 20 μM (100 μl/well) for 2 hours. At this time, after measuring the fluorescence of the bottom (A), the antigen HBsAg as an analyte for an IgG antibody of a goat was treated at a concentration of 10 μg/ml for 1 hour.
Test [5] deals with T2, anti-HRP antibody.
T2 construct: also called anti-HRP antibody 10
Nature of the test: fluorescence of labelled peptide (10 µM) on anti-HRP antibody fixed on a solid support, before (A) and after (B) HRP 10 µg/ml; C = fluorescence in the solution.
Method: (§1) 1 to 4 were each treated at a concentration of 10 μM (100 μl/well) for 2 hours. At this time, after measuring the fluorescence of the bottom, the antigen HRP as an analyte for an IgG antibody of rabbit was treated at a concentration of 10 μg/ml for 1 hour. […] 1 to 4 were each treated at a concentration of 20 μM (100 μl/well) for 2 hours. At this time, after measuring the fluorescence of the bottom, the antigen HCG as an analyte for an IgG antibody of a mouse was treated at a concentration of 100 μg/ml for 2 hours.

The target of test [6] is T2, anti-HRP antibody. In words: SPR, anti-HRP antibody immobilized on gold chip, peptide at 20 µM. On the technique in general: In SPR one partner is held on a chip, and binding of the other changes the refractive index at the surface.
Method: (§2) Carbodiimide/N-Hydroxysuccinimide (EDC/NHS, 0.4 M/0.1 M) was mixed in a 1:1 ratio and treated for 10 minutes to activate functional groups. […] Thereafter, it was used after blocking with an ethanolamine concentration of 1 M for 10 minutes. All of the switching binders 100 were treated by incubation for 30 minutes using two concentrations of 10 and 20 μM, respectively. The SPR signal can be measured as an average value by repeating the routine of measuring the SPR signal for 3 minutes while the solution is stopped after flowing 1% Tween-20 washing solution for 1 minute three times.
Test [7] deals with T3, antibody 10 immobilized by the support 30 (FIG. 7A; antibody not identified).
T3 construct: also called the antibody 10
Nature of the test: fluorescence of labelled peptide on an antibody fixed on a support, peptide concentration varied (log axis, 0.1-100 µM).

In test [8] the target is B2. Nature of the test: FRET between the labelled peptides L1 and H2, L1 peptide concentration varied (linear axis, 0-10 µM).
In test [9] the target is T2, anti-HRP antibody. In words: SPR, anti-HRP antibody immobilized on gold chip, peptide at 10 µM.
Method: as §2
Test [10] has as its target T3, antibody 10 immobilized by the support …. In words: fluorescence of labeled peptide vs peptide concentration on immobilized antibody (FIG. 7A).
Test [11] has as its target B1. Nature of the test: FRET between the two peptides (FIG. 5E).
Test [12] addresses anti-hCG antibody. In words: fluorescence of labelled peptide (20 µM) on anti-hCG antibody fixed on a solid support, before (A) and after (B) hCG 100 µg/ml; C = fluorescence in the solution.
Method: as §1
Test [13] deals with B3. Nature of the test: FRET between the labelled peptides H1 and L2, H1 peptide concentration varied (linear axis, 0-10 µM).

B1: the binding result is reported as “no binding (tested: 20 µM)” in test [1], “no binding (tested: 20 µM)” in test [2] and “binds” in test [8]. The figures for the “percent printed over the arrow from bar A to bar B (residual bound peptide after antigen; agrees with B as percent of A)” value in test [3], in test [4] and in test [5] were 51.4%, 51.4% and 12.8%, respectively. Besides, the SPR signal amounted to 40.4 RU in test [6] and 25.3 RU in test [9]. The “EC50 (read off the curve)” value in test [7] is around 6 µM. In addition, binding in test [10] was put at a Kd of 6.62 µM.
For the molecule B2, the values for the binding result in test [1] and in test [11] were “no binding (tested: 20 µM)” and “binds”, respectively. The “percent printed over the arrow from bar A to bar B (residual bound peptide after antigen; agrees with B as percent of A)” value in test [3] turned out to be 60.5%; in test [4], 60.5%; in [5], 14.8%; in [12] it was 11.5%. In addition, the results for the SPR signal in test [6] and in test [9] were 192 RU and 51.5 RU, respectively. Besides, the Kd in test [10] came out at 19.4 µM.
Consider SYWIHWVKQRPGQGLEWIGE (also: fluorescence label in fluorescence assays, dye and place not given here, also called PEPTIDE 1) [switching binder of SEQ ID NO. 1 (H1)], for which the binding result is “no binding (tested: 20 µM)” in test [1], “no binding (tested: 20 µM)” in [2] and “binds” in [13]. Also, the “percent printed over the arrow from bar A to bar B (residual bound peptide after antigen; agrees with B as percent of A)” value in test [3] was 73.2%; in [4], 73.2%; in test [5] it was 12.3%; in test [12], 34.4%. The SPR signal stood at 121 RU in [6] and 34.4 RU in test [9]. Further, in [10], binding was put at a Kd of 1.42 µM.
With B3, the binding result in [1] and in test [2] was “no binding (tested: 20 µM)” each time. Besides, the “percent printed over the arrow from bar A to bar B (residual bound peptide after antigen; agrees with B as percent of A)” value in test [3] amounted to 55.1%; in test [4] it was 55.1%; in test [5], 25.5%; in test [12] it was 9.3%. The results for the SPR signal in [6] and in [9] were 418 RU and 125 RU, respectively. The molecule further returned an equilibrium dissociation constant (Kd) in test [10] of 6.68 µM.

The record behind these values is patent US20230073007A1 (OPTOLANE TECHNOLOGIES, published 2023).
